Legend:
[1] = target: T1, hMMP-7 (Homo sapiens, UniProt P09237 P09237:95-267); test: SPR; 50 nM protein, PBS; conditions: label: 3' biotin; hairpin
T1 sequence: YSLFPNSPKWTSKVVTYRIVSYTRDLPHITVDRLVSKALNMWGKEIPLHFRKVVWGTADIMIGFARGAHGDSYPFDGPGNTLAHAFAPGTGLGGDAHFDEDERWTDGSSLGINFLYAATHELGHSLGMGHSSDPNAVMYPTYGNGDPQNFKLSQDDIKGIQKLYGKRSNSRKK
Procedure: (§1) Surface Plasmon Resonance (SPR) experiments were performed on a BIAcore™ 3000 apparatus (Biacore AB, Sweden). 2 μg of hMMP-9 protein were injected on a carboxymethylated dextran CM5 sensorchip for immobilisation and aptamers F3B, F3C1 and F3C2 were injected at 200 nM (20 μl/min) in SP buffer. Alternatively CM5 sensorchips were functionalized with streptavidin. 3′ end biotinylated F3B and F3Bomf were immobilised on the functionalized CM5 and hMMP-9 protein at 100 nM in SP buffer was injected. hMMP-9 was injected at different concentrations (from 5 to 160 nM) in PBS buffer. In another series of experiments 3′end biotinylated aptamer F3Bomf was immobilized and hMMP-9, pro-hMMP-9, mouse pro-MMP-9, human MMP-2 or MMP-7 proteins were injected at 50 nM in PBS buffer. SPR experiments were performed at 23° C., at 20 μl/min, and the complexes were dissociated with a pulse of a solution containing 40% formamide/3.6 M urea/30 mM EDTA (42).

[2] = target: hMMP-2 (gelatinase A) (Homo sapiens, UniProt P08253 P08253:110-660); test: SPR; 50 nM protein, PBS; conditions: label: 3' biotin; hairpin
Procedure: as §1

[3] = target: T2, hMMP-9 (gelatinase B) (Homo sapiens, UniProt P14780 P14780:107-707); test: SPR; no detectable signal; conditions: tags: Calbiochem
Procedure: as §1
Next we optimized the F3B chemistry in the perspective of its use in biological media. […] However the equilibrium constant was evaluated to be in the low nanomolar range. […] In contrast, F3Bomf was able to discriminate between the human and the murine zymogen pro-MMP-9: a weak signal (49 RU) to the mouse pro-MMP-9 was detected, compared to about 1 300 RU with the human proenzyme.

[4] = target: T3, pro-hMMP-7 (Homo sapiens, UniProt P09237 P09237:18-267); test: filter; no retention; conditions: label: 32P 5' end; imperfect hairpin
T3 sequence: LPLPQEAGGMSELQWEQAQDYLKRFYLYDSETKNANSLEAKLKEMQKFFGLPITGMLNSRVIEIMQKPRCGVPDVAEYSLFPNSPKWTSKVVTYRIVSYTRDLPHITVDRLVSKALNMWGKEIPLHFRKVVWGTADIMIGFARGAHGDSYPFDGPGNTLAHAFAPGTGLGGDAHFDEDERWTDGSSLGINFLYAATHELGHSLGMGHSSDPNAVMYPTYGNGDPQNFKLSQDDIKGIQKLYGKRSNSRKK

[5] = target: T1, hMMP-7; test: filter; no retention; conditions: label: 32P 5' end; imperfect hairpin
[6] = target: T2, hMMP-9 (gelatinase B); test: filter; SP buffer (5 mM CaCl2, 1 mM Mg acetate), 23 C; conditions: tags: Calbiochem; label: 32P 5' end; imperfect hairpin
Procedure: The dissociation constant (Kd) of the complexes, formed by the aptamers and the hMMP-9 protein, was determined using the filter retention method. 1 nM of ³²P 5′end-labeled aptamer was incubated with increasing concentrations of hMMP-9 (10, 20, 40, 72, 160, 320, 500 nM) for 20 min at 23° C. in 20 μl SP buffer. Complexes were filtered and the radioactivity retained on the filter was quantified using a scintillation counter (LS 6000 IC, Beckman). Kd values were deduced from data point fitting with Kaleidagraph 3.0 (Abelbeck software), according to the equation: B=(Bmax[L]₀)/([…]), where B is the proportion of complex, Bmax is the maximum of complex formed and [L]₀ is the total concentration of unlabeled ligand.

T2 sequence (P14780 107-707, one chain of several): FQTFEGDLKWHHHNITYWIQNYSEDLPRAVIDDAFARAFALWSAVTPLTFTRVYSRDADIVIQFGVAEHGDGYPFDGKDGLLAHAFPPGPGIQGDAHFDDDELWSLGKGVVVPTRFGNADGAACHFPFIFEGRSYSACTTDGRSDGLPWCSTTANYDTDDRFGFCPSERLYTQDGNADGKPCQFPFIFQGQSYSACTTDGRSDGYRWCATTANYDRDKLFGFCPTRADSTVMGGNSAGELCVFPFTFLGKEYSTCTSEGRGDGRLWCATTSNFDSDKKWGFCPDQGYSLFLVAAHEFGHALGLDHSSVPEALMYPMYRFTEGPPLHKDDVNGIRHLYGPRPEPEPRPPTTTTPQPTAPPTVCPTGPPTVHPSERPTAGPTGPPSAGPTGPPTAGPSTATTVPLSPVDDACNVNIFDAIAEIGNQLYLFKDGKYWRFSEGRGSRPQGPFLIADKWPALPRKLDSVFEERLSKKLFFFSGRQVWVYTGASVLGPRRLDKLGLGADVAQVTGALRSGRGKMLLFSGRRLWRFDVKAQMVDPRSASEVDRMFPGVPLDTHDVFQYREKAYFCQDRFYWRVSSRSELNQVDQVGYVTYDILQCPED
hMMP-2 (gelatinase A), sequence (P08253 110-660, one chain of several): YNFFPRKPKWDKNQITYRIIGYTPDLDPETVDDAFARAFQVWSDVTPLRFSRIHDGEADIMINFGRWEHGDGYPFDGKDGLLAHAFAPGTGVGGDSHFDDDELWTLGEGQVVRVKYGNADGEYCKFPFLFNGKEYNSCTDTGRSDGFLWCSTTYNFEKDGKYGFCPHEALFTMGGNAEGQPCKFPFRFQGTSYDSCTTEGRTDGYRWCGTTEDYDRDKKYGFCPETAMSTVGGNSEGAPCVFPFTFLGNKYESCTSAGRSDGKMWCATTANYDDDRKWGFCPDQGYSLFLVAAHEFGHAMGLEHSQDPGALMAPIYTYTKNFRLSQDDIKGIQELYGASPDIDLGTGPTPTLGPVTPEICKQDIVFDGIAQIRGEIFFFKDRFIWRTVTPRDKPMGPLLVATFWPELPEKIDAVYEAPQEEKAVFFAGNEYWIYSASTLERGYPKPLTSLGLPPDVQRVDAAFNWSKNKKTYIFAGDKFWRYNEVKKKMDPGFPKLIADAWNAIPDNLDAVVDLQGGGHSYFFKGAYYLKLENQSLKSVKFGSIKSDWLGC

Binder: UGCCCUGCCCUCACCCGUUAGCCUGAGCGCCCCGCA (XNA, 2'-F pyrimidines, 2'-OMe purines) [F3Bomf]
- binding result [1]: no binding
- binding result [2]: no binding

Binder: UGCCAAACGCGUCCCCUUUGCCCGGCCUCCGCCGCA (XNA, 2'-F pyrimidines, 2'-OMe purines) [control scrambled sequence]
- binding result [3]: no binding

B1: F3 (ssRNA)
RNA: GGUUACCAGCCUUCACUGCCCUGCCCUCACCCGUUAGCCUGAGCGCCCCGCACCACGGUCGGUCACAC
modifications: 2'-F pyrimidines, 2'-OH purines
- binding result [4]: no binding
- binding result [5]: no binding
- Kd [6]: 8.1 nM

From patent US20150337308, “MATRIX METALLOPROTEINASE 9 (MMP-9) APTAMER AND USES THEREOF” (CHU DE BORDEAUX, published 2015)
